Measurements as given in the DeepSol protein solubility set.

assay: soluble on expression in E. coli; label from the status in PepcDB or PDB records

Row | Sequence | soluble on expression in E. coli
1 | MGSDKIHHHHHHMSNRHDADTPARLSSGIDGIDDILGGGLTPHRMYLVEGAPGTGKTTLALQFLLKGVEEGQGGLYITLSETRPELIAVAESHGWDISRFTILELLSDEGLDPQYEQTVLHPAEVELGETVRNVIQHVDELKPARIVLDSLSELRLLSQNPLRYRRQILALKRYFATRECTVLLLDDNSSDPGDVQLHSIAHGVISLDNLVHDYGGNRRRARVAKMRGIKFREGYHDFTLDTGGIHVYPRLVAAEHHADFSTEVVSTGTAGLDALLGGGLIPGTNALMIGPSGVGKTTTVVSCLIAALERGERCVYYVFDETLTTLMTRCATLGIYLAPHVESGLLTLRQIDPAEISPGEFASDVRRSVEKKGVRYVAIDSLNAYLQAMPGERYLLLQMHELLGYLNQQGIVTMLVLGQHGIIGEVQNDIDISYLSDVVVLFRYFEHHGEVLTAITAVKSRANAHERSIRQFRLGVNGVEVGDALRDFEGVLSGLPAYRGSTALLGATNRVIETPGK | not soluble
2 | MCIGVPGQVLAVGEDIHQLAQVEVCGIKRDVNIALICEGNPADLLGQWVLVHVGFAMSIIDEDEAKATLDALRQMDYDITSA | not soluble
3 | MGHHHHHHMAGVSEYELPEDPRWELPRDRLVLGKPLGEGAFGQVVLAEAIGLDKDKPNRVTKVAVKMLKSDATEKDLSDLISEMEMMKMIGKHKNIINLLGACTQDGPLYVIVEYASKGNLREYLQARRPPGLEFSFNPSHNPEEQLSSKDLVSCAYQVARGMEYLASKKCIHRDLAARNVLVTEDNVMKIADFGLARDIHHIDYYKKTTNGRLPVKWMAPEALFDRIYTHQSDVWSFGVLLWEIFTLGGSPYPGVPVEELFKLLKEGHRMDKPSNCTNELYMMMRDCWHAVPSQRPTFKQLVEDLDRIVALTSNQEYLDLSMPLD | soluble
4 | AKAAGSSIGQQDTLVMLLNFKENPNDQPITSEEAHALVFGEVNDFYQENSYGKTWLSGQVAGWYTLPVSDQVCDYPSVQAEADKMARADGIVLEDYQR | not soluble
5 | MKLKKTDVFNLDGTVKQTAFIHDQKTGKKNTLYLKPVQQDLMLYHAWLIQQNMNSEWLFPSTSRPDRPITEKQFYKIMARVGDLLGINYLGTHTMRKTGAYRVYTQSNYNIGLVMHLLNHSSEAMTLTYLGLDQASRENMLDQIDFG | not soluble
6 | MGSDKIHHHHHHMKWRGYLTPVTENYLHAYGVGYISYVLARKFHVDSVKAFVTGTLHDLGGAVPADERVTVAESIGISLNDEEREVPLLVHAKLGKYFAQTLFDITDEDMLNAILFHTTCIDRASDLVKIVFLADKIRWDRNGTPPYLDGLLAALEISLDDGCSYFLKWLWNSDLYIVHPYLSRSYGAYVRQQQYNPISLQDFSVLQGNLNENLVKKYYLHDIYQEFHRTFYHAHLASVLASKHSVNTEEAYVTSALVNMTNTIKDDELETIASVLNLNVQVPIRPQLTSILARDEYGITSLEMLKTLKSFPQIPSNHNSLLWVVVMSWICQKSIKCEVEDE | not soluble
7 | MPDAVVIGAGPNGLVAANLLADAGWSVTVLEEQDEPGGAVRHDNGVDPDFTTDLFSSFYPLAAASPVLAGLHLEREGLRWSHAPRVLAHPLSDGRCAVLGRDLDDTAASLDTFADGDGAAWRELHDVWERLRPDLLDALFTPFPPVRAGARLAARLRAGGGLRLARSLVLPVRRLGEEEFRGEGGRLLLAGNALHADLAPEAAGSGGFGWLMSMLGQTYGFPVPVGGSGALTSALTQRLHRRGGVLRCGQRVSEVVVRQGRAVAVRTAGGETVPARRAVLADVSVPALYGTLVGSAHLPAQVLADLRRFQWDFATFKVDWALDGPVPWQADAASAAGTVHLADGVDELTRFAAQIAMRQVPDRPFALFGQMTTADATRSPEGTEAAWAYTHVPHRIAGDAGDAGLAGTWDAREQELMADRVERQVERFAPGFRSLIRARRILAPPTLQSLNANLYGGAINGGTTALHQQLVFRPIPGTGRPETPVANLFLASAGAHPGGGVHGAPGANAARAALRKHLPSGLTRAQRLLTRRNRKGERDTGFGGLEHHHHHH | not soluble
8 | MGSDKIHHHHHHMHTESIKTPTDNHAKGAVSSTVSPTTYTPDLPSDEEDYSTLINMLPPVAPSSTPTEDESTESDNMPTDALHDFSQSLETQYGIAPGVNIQQQRQQRAEANGLTFACVGRQPVDDIWQIYPARKHKLEAYSLALDIAESVGLERYVEHVVNTPVDYAYRMLPLENAVENEMVKMCYDLLMLLQTVDSTSYPSVSITLSFLLDAEKIDDVTLVKLFRLIRLVRYIRQGAHHDNV | not soluble
9 | MSLKAIKNGTILTGTGETIKQGTLLIQDGKVLEVGQRVDTPANAKLIDATGKYVTPGLIDVHTHIGVFSEGLGRTGHDFNETTAAATPYIRAIDGIYPFDQGFEDARQSGVTTVQIMPGSANVIGGEMVTVKTAGTVVDEMIVRAPSGMKAAFGENPKNVHGGKGKLPATRMGVAALFRQQLYQAQDYLKRFEKGELEKRDLGMEQLAKVLRKEIPLRVHAHRADDIATVLRMVDEFDLEATIEHCTEGHLIADHIAKYNVKVSVGPTMTSRTKQELVNKGWHTLIELEKHGIPFSITTDHPVVTINHLVTSAIQAVKAGLSEQSAFQAITLRAAEHIGVEQQVGSLEKGKDGDFVIWSDHPFTATAQVEATYINGKCVTGSHCEGHHHHHH | soluble
10 | MSWFISRKDIAYISRGAKLLGCGGGGDTKTTQRLLESIMKEDDQINVLQYEDLTEQVVATVCFAGSPILYEEQLPRGDEGQMVFQEYQLKTNKKIDAVISAEIGGMNALIPLVVALQTGCAVVDGDGMGRAFPEFTMTTFYMHGLPISPLILLTRDGKQHLIEGAANDRIVRDNRQLLNMHGGFGHFICCGADANVVKNMMVSGTLKLAYRLGRAMEQDQLSAAAGWTAVEDEWENSIYGKPTLLIKGTVESVVRTFDQEQIVGELTIIGKQRFIGTTLTVSFHNEFIAVKKEGQYLVMVPDLIIIVNAKTFLPYTTNEIQRGMSVLIYAIPAPNVLRQKQMIDHVGPQAYGLDVPYEPFFLEHHHHHH | not soluble
11 | MCIGMDIRDFFAQSAGRWFSQRTSHHLAFKQTESGKSQLTIELLSVDDPAVIALCQQYDMDPAWAVCGARVSWDGTMEWDNEKHEGSTVLVPIMDQGSRMEGKLLREMGYAEKAPVAGRFSMGSDGALTLITEYETIYSEERLWFASPNLRLRTSILKRFGGFSMASFCSEIRLGVTQPANSLEHHHHHH | soluble
12 | MGSDKIHHHHHHVLADSTGHGLSAAMPIMRVASTFRAMVSKGFSLATLIYELNSKVHRENPDDRFVACIVLEVDFYRKKIHIWNGGMPPVYIKNHLETETVSDHYPVKNIIKFKSTNMALGILPSQTFVADIATVDLPVVGHACLFSDGLIEQYTNENKPFGIETLNSLFIQYASELIPYLTENFKKVFDGKPITDDITVCTLDFERLNEWHQQNNICLARSNMDGEFDWEVKLAGPMLLSAEYLNSLNQFLGMFGFATSFCQRVFTVVAELFSNAIDHGVLKLDSRLKSDPDGFELYHSIRDSSSARLTMNDWVKVSLVWCSITNELHICVADSGQGFKGYKNTVVDIPQLSGRGLSLVKTLSKTYELVSPGNITKVIME | not soluble
13 | MNLLIDNWIPVRPRNGGKVQIINLQSLYCSRDQWRLSLPRDDMELAALALLVCIGQIIAPAKDDVEFRHRIMNPLTEDEFQQLIAPWIDMFYLNHAEHPFMQTKGVKANDVTPMEKLLAGVSGATNCAFVNQPGQGEALCGGCTAIALFNQANQAPGFGGGFKSGLRGGTPVTTFVRGIDLRSTVLLNVLTLPRLQKQFPNESHTENQPTWIKPIKSNESIPASSIGFVRGLFWQPAHIELCDPIGIGKCSCCGQESNLRYTGFLKEKFTFTVNGLWPHPHSPCLVTVKKGEVEEKFLAFTTSAPSWTQISRVVVDKIIQNENGNRVAAVVNQFRNIAPQSPLELIMGGYRNNQASILERRHDVLMFNQGWQQYGNVINEIVTVGLGYKTALRKALYTFAEGFKNKDFKGAGVSVHETAERHFYRQSELLIPDVLANVNFSQADEVIADLRDKLHQLCEMLFNQSVAPYAHHPKLISTLALARATLYKHLRELKPQGGPSNG | soluble
14 | MAEIRVGTASWTDPTLLASGWYPPGVRNHPERRLRYYAQHFDTVEVDSTFYALPRLEVVRKWAERTPEGFLFHVKAYSAFTGHGLEASALPKDLQALLPQKEGHLSQREVPEEVVEEAWNRFFASLAPLREAGKLGYLHFGLPPWTEPKPRSFRYLERLAERTQGYLVAVEFRNPRWYTAWGFVKRELMRLGLAHVSVDAPPHPEAPPRVLEPTREVAVLRCHGRNAETWKGPHQKPYERFNWRYSEEELLDLAEATRTLAAQAERVFVIFNNNYGTQGVEAALGLKRLLGLGKPPWAEGPFS | soluble
15 | MSLRALFDALTPKQARIAAILKREGGLQLTITCREYYHLRDMLEQYKVDYICIGRYGETTEEKLVEGLKRQLQMVEIMRGLDGVVSFPSPDAVRTAFGLGKKSVVLNDTPHAYHANSLTIPLSDALIAPSAIPQDAWRRYCPKKVMTFDGVFEYMWTSRHTPNLESVRKLGLEPGSYVVFRPEEAKAAYYQWNNVQLRAKLVELVKEMGYVVVNIPRYPDQVIEGAINLIKAVDHLDLAYYAAAVITGGLTMSTEAALLGTPAVSYFPGDVYIDRYLERAGAPLLRCSSMDECIHVVKKALSMGRAPPPKMEDPLKAIVAAVQEIFGGEGHHHHHH | soluble
16 | MHDRSYTLDDVTVAMGTYNEAAAIDTVLTDIADATDDRARVVCVDGSSDRTPEIAREHGATVIEQEPQGYGVAVAAALDAADTPVVITTDCDNTYPMERIPAFLARINEGYDVVSGDRLYWGADTMPAFNRLGNAAFAAITSLLVGERVHDTTTGMRAYRAPVIDAIDWTQNTGLSAELLIRPLCRNYDVIEEPIGYADRLGDTKLDPLEGGAEILGSILKVCAEERLPLEHHHHHH | not soluble
17 | MSTSTLQSEQSMEIITPPADIGTRTLVDKAAQFVSKKGLEFETKIIDSYPTDAKFNFLRSTADPCHTYYKHKLAEYSSQNQDGATDESDIKIFHAPPNVTTTAIVETTSCLVSQFGSEFEMMVKDSNTDDARFNFLKSSEDPYNVLYKQKLDEYSLDPRDAYYQHKLAESISKYHREATPKLVLPNLLQFRLVKEMTFEELDTVKVTAQFVAWYGDDFRGFLMERVMTEPQFEFMKATDYRFSFYNEFVVAYSQVLNPPKYLKDKLRGRAAYTVIGHLLITMSEEEIS | soluble
18 | WLEPYLAGVTSVKGLQSVSVLQALKHYLGWELSQQLDEWLPTHHLLPTGNHKKIRYQLGMEPTLSVRMQEVFGEQSSPRVAKGTRAVVMELLSPAQRPLQVTRDLASFWAGAYKEVQKEMKGRYPKHVWPDDPANHVATSKTKRQLNA | not soluble
19 | MIDVLLGADDGSLAFVPSEFSCSPGCKIVFKNNAGFPHNIVFDEDSIPSGVDASKISMSEEDLLNAKGETFEVALSNKGEYSFYCSPHQGAGMVGKVTVN | soluble
20 | NTYAPIETLKRLYSEAFRLPDVVGISIGTRIDSVNHEILDFLGEYAREKEVWIEYGIQSIHDRTLEGINRGHDSSEMEYWIKETQNRGIKVCVHLIYGLPGESEEMMLETLDKMIEWQAESIKIHPLYVMAHTALATLYKKGEYTPITLERYAWLIGESMKRIPK | not soluble
